Here are results for one substance from paper PMC2148073.

For assay [1], the target named is native syntaxin 1A from PC12 cells (rat (endogenous in PC12)) (UniProt P32851).
Assay [2] shares this target. This is another data set of the same source.

Chain of UniProt P32851 (P32851 whole entry): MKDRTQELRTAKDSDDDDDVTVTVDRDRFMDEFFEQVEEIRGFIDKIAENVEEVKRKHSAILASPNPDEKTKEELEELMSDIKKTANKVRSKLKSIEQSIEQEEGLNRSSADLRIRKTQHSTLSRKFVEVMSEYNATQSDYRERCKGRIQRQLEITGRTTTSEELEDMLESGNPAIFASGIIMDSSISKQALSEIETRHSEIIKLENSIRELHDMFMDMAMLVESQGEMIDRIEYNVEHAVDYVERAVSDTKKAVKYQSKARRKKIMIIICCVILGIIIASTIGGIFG

Consider “GST-fused Kv2.1-C1 protein (domain or fragment)”, for which the inhibition of Ca2+-triggered [3H]-NE release from cracked PC12 cells by 10–20 µM GST-fusion peptide present during priming and triggering; pair blocked: endogenous Kv2.1 with syntaxin in assay [1] was found to be 60%. In assay [2], the half-maximal inhibition of Ca2+-triggered [3H]-NE release from cracked PC12 cells (dose response of GST-Kv2.1-C1); pair blocked: endogenous Kv2.1 with syntaxin came to 2 µM and the inhibition of Ca2+-triggered [3H]-NE release from cracked PC12 cells at increasing concentrations of GST-Kv2.1-C1 (from 10 nM; saturation at 5 µM); pair blocked: endogenous Kv2.1 with syntaxin worked out at 57%.
